For data set [1], the target named is BcDltA (D-alanyl carrier protein ligase DltA) (Bacillus cereus, UniProt Q81G39). Briefly: biochemical.
In another data set the test system is C[C@@H](N)C(=O)O. Briefly: purified protein. To be noted: 5 mM ATP, 5 mM CoA, 10 mM MgCl2, 0.1 M KCl, pH 7.2.

One may read the Kd as a measure of binding affinity in units of concentration. Low values mean a tighter complex, high ones a looser complex. Usually kcat stands for the maximal rate divided by the concentration of active sites. By kcat/Km is commonly meant the second-order rate constant that governs catalysis at low substrate concentration.

BcDltA (D-alanyl carrier protein ligase DltA), sequence (Q81G39 whole entry): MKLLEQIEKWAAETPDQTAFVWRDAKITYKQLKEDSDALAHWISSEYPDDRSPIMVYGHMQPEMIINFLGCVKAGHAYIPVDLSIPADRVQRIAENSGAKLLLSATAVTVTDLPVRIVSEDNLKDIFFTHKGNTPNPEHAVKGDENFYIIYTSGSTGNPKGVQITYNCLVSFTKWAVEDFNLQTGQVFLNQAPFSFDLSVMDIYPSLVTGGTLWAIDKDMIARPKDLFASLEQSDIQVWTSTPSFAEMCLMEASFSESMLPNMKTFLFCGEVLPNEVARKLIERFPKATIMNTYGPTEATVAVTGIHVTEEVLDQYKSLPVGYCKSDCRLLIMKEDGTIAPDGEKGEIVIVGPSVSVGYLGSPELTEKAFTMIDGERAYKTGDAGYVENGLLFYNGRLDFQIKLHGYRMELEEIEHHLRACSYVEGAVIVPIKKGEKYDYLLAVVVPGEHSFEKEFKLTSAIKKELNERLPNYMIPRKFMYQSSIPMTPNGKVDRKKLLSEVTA
Description for C[C@@H](N)C(=O)O: pyrophosphate release, pyrophosphatase-coupled malachite green assay on BcDltA (D-alanyl carrier protein ligase DltA)

`Nc1ncnc2c1ncn2[C@@H]1O[C@H](COP(=O)(O)OP(=O)(O)OP(=O)(O)O)[C@@H](O)[C@H]1O` [ATP] returned a Kd in data set [1] of 430 µM.
As to “BcDltA (D-alanyl carrier protein ligase DltA) (Bacillus cereus ATCC 14579)”, in the data set on C[C@@H](N)C(=O)O, the Km is reported as 0.03 ± 0.01 × 10^-3 M, the kcat was found to be 0.182 ± 0.00333 s⁻¹ and the kcat/Km worked out at 6050 ± 1670 M⁻¹ s⁻¹.

Values taken from paper PMC4176424, “Thiolation-enhanced substrate recognition by D-alanyl carrier protein ligase DltA from Bacillus cereus” (F1000Research, 2014).
